In general, stoichiometry N refers to the number of molecules, sites or subunits per partner or assembly.

Data on two molecules can be found in PMC5869396 (Toxins, 2018).

The target in experiment [1] is T1, recombinant Shiga toxin-2a B subunit (rStx2aB), C-terminal 6xHis tag (Escherichia coli O157:H7 EDL933 …).
T1 construct: source: E. coli BL21 (pET22b), periplasmic extract, purified (IMAC, SEC); not shown: His6, C-terminal, kept
Put plainly: crystal structure. Particulars: both partners purified.

Experiment [2] has as its target T2, Stx2a holotoxin (Stx2a A subunit with the Stx2a B pentamer) (Escherichia coli, Stx2a strain not …, UniProt P09385;P09386).
T2 construct: copies: 1 + 5
Put plainly: pull-down. Particulars: one partner purified.

B1: Nb113 (expressed from pMECS, C-terminal HA and His6 tags) (VHH)
VHH: QVQLQESGGGLVQPGGSLRLSCAASGFTFSSYYMSWVRQAPGKGPEWVSGINTGGVGTRYADSVKGRFTISRDNAKNTLYLQMNSLKPEDTALYYCAIGEGGNRNYWGQGTQVTVSS
notes: source: E. coli WK6 (pMECS), periplasmic extract, purified (IMAC, SEC)
For the molecule B1, the “stoichiometry N” value in experiment [1] is 5 per pentamer.

B2: monovalent Nb113 (expressed from pHEN6c, His6 tag, without the HA tag) (VHH)
VHH: QVQLQESGGGLVQPGGSLRLSCAASGFTFSSYYMSWVRQAPGKGPEWVSGINTGGVGTRYADSVKGRFTISRDNAKNTLYLQMNSLKPEDTALYYCAIGEGGNRNYWGQGTQVTVSS
notes: also called Nb113 monovalent; monomeric Nb113; source: E. coli WK6 (pHEN6c), purified (IMAC, SEC)
Regarding B2, the binding result in experiment [2] is listed as “binds”.
